{"source": "paper PMC10444022", "about": "“SARS-CoV-2 hijacks neutralizing dimeric IgA for nasal infection and injury in Syrian hamsters^1” (Emerging Microbes & Infections, 2023)", "target": "recombinant SARS-CoV-2 RBD (Sino Biological) (SARS-CoV-2, UniProt P0DTC2)", "experiment": "cell-based or functional assay"}
{"binder": "B8-dIgA1 (antibody, V domains shown) VH: EVQLVQSGAEVKKPGSSVKVSCKASGGTFSNYGISWVRQAPGQGLEWMGRILPTFGTANSAQKFQGRVTITADESTGTAYMELRSLRSEDTAVYYCAKEGLAFLGYGMDVWGQGTTVTVSS VL: EIVLTQSPGTLSLSPGERATLSCRASQSVSSYLAWYQQKPGQAPRLLIYDASNRATGIPARFIGSGSGTDFTLTISSLEPEDFAVYFCQQRSNWPLTFGGGTKVEIK", "values": [{"measurement": "IC50, neutralisation of SARS-CoV-2 pseudovirus in HEK293T-ACE2 cells", "value": 0.0048, "unit": "µg/mL"}, {"measurement": "IC90, neutralisation of SARS-CoV-2 pseudovirus in HEK293T-ACE2 cells", "value": 0.033, "unit": "µg/mL"}]}
{"binder": "B8-mIgA2 (antibody, V domains shown) VH: EVQLVQSGAEVKKPGSSVKVSCKASGGTFSNYGISWVRQAPGQGLEWMGRILPTFGTANSAQKFQGRVTITADESTGTAYMELRSLRSEDTAVYYCAKEGLAFLGYGMDVWGQGTTVTVSS VL: EIVLTQSPGTLSLSPGERATLSCRASQSVSSYLAWYQQKPGQAPRLLIYDASNRATGIPARFIGSGSGTDFTLTISSLEPEDFAVYFCQQRSNWPLTFGGGTKVEIK", "values": [{"measurement": "IC50, neutralisation of SARS-CoV-2 pseudovirus in HEK293T-ACE2 cells", "value": 0.0057, "unit": "µg/mL"}, {"measurement": "IC90, neutralisation of SARS-CoV-2 pseudovirus in HEK293T-ACE2 cells", "value": 0.014, "unit": "µg/mL"}]}
{"binder": "B8-mIgA1 (antibody, V domains shown) VH: EVQLVQSGAEVKKPGSSVKVSCKASGGTFSNYGISWVRQAPGQGLEWMGRILPTFGTANSAQKFQGRVTITADESTGTAYMELRSLRSEDTAVYYCAKEGLAFLGYGMDVWGQGTTVTVSS VL: EIVLTQSPGTLSLSPGERATLSCRASQSVSSYLAWYQQKPGQAPRLLIYDASNRATGIPARFIGSGSGTDFTLTISSLEPEDFAVYFCQQRSNWPLTFGGGTKVEIK", "values": [{"measurement": "IC50, neutralisation of SARS-CoV-2 pseudovirus in HEK293T-ACE2 cells", "value": 0.012, "unit": "µg/mL"}, {"measurement": "IC90, neutralisation of SARS-CoV-2 pseudovirus in HEK293T-ACE2 cells", "value": 0.052, "unit": "µg/mL"}]}
{"binder": "B8-dIgA2 (antibody, V domains shown) VH: EVQLVQSGAEVKKPGSSVKVSCKASGGTFSNYGISWVRQAPGQGLEWMGRILPTFGTANSAQKFQGRVTITADESTGTAYMELRSLRSEDTAVYYCAKEGLAFLGYGMDVWGQGTTVTVSS VL: EIVLTQSPGTLSLSPGERATLSCRASQSVSSYLAWYQQKPGQAPRLLIYDASNRATGIPARFIGSGSGTDFTLTISSLEPEDFAVYFCQQRSNWPLTFGGGTKVEIK", "values": [{"measurement": "IC50, neutralisation of SARS-CoV-2 pseudovirus in HEK293T-ACE2 cells", "value": 0.012, "unit": "µg/mL"}, {"measurement": "IC90, neutralisation of SARS-CoV-2 pseudovirus in HEK293T-ACE2 cells", "value": 0.021, "unit": "µg/mL"}]}
